Results from the RNAGym collection of RNA variant scans (doi:10.7554/elife.80360).

B1: Hairpin Ribozyme (parent)
chain: GUCCUCUUUCACGUGCGCGUGAAAGAGAGAAGUGAACCAGAGAAACACACGUUGUGGUAUAUUACCUGGUA

Variants of: B1
Experiment: self-cleavage, relative activity (ratio to wild type); higher = more cleavage; co-transcriptional

Row | Variant | self-cleavage
1 | GUCCUCUUUCACGUGCGCGUGAAAGAGAGAAGUGAACCAGAGAAACACACGUUGUGGUAUAUUACAUGGUC [C66A A71C] | 0.445
2 | GUCCUCUUUCACGUGCGCGUGAAAGAGAGAAGUGAACCAGAGAAACACACGUUGUGGUAUAUUACAUGGUU [C66A A71U] | 0.184
3 | GUCCUCUUUCACGUGCGCGUGAAAGAGAGAAGUGAACCAGAGAAACACACGUUGUGGUAUAUUUCCUGGUU [A64U A71U] | 0.305
4 | GUCCUCUUUCACGUGCGCGUGAAAGAGAGAAGUGAACCAGAGAAACACACGUUGUGGUAUAUUACCAGGCA [U67A U70C] | 0.247
5 | GUCCUCUUUCACGUGCGCGUGAAAGAGAGAAGUGAACCAGAGAAACACACGUUGUGGUAUAUUCCCUGGGA [A64C U70G] | 0.127
6 | GUCCUCUUUCACGUGCGCGUGAAAGAGAGAAGUGAACCAGAGAAACACACGUUGUGGUAUAUUAAGUGGUA [C65A C66G] | 0.0953
7 | GUCCUCUUUCACGUGCGCGUGAAAGAGAGAAGUGAACCAGAGAAACACACGUUGUGGUAUAUUACGUUGUA [C66G G68U] | 0.0439
8 | GUCCUCUUUCACGUGCGCGUGAAAGAGAGAAGUGAACCAGAGAAACACACGUUGUGGUAUAUUACGUCGUA [C66G G68C] | 0.0397
9 | GUCCUCUUUCACGUGCGCGUGAAAGAGAGAAGUGAACCAGAGAAACACACGUUGUGGUAUAUUACUUAGUA [C66U G68A] | 0.0865
10 | GUCCUCUUUCACGUGCGCGUGAAAGAGAGAAGUGAACCAGAGAAACACACGUUGUGGUAUAUUACUUUGUA [C66U G68U] | 0.334
11 | GUCCUCUUUCACGUGCGCGUGAAAGAGAGAAGUGAACCAGAGAAACACACGUUGUGGUAUAUUACCGGGUC [U67G A71C] | 0.37
12 | GUCCUCUUUCACGUGCGCGUGAAAGAGAGAAGUGAACCAGAGAAACACACGUUGUGGUAUAUUACCGGGAA [U67G U70A] | 0.214
13 | GUCCUCUUUCACGUGCGCGUGAAAGAGAGAAGUGAACCAGAGAAACACACGUUGUGGUAUAUUACCGGGCA [U67G U70C] | 0.588
14 | GUCCUCUUUCACGUGCGCGUGAAAGAGAGAAGUGAACCAGAGAAACACACGUUGUGGUAUAUUUCAUGGUA [A64U C66A] | 0.156
15 | GUCCUCUUUCACGUGCGCGUGAAAGAGAGAAGUGAACCAGAGAAACACACGUUGUGGUAUAUUUCGUGGUA [A64U C66G] | 0.069
16 | GUCCUCUUUCACGUGCGCGUGAAAGAGAGAAGUGAACCAGAGAAACACACGUUGUGGUAUAUUGCCUGUUA [A64G G69U] | 0.116
17 | GUCCUCUUUCACGUGCGCGUGAAAGAGAGAAGUGAACCAGAGAAACACACGUUGUGGUAUAUUCCCUCGUA [A64C G68C] | 0.273
18 | GUCCUCUUUCACGUGCGCGUGAAAGAGAGAAGUGAACCAGAGAAACACACGUUGUGGUAUAUUACGCGGUA [C66G U67C] | 0.219
19 | GUCCUCUUUCACGUGCGCGUGAAAGAGAGAAGUGAACCAGAGAAACACACGUUGUGGUAUAUUACCCCGUA [U67C G68C] | 0.178

Row | Variant | self-cleavage
20 | GUCCUCUUUCACGUGCGCGUGAAAGAGAGAAGUGAACCAGAGAAACACACGUUGUGGUAUAUUUCCUGGUA [A64U] | 0.181
21 | GUCCUCUUUCACGUGCGCGUGAAAGAGAGAAGUGAACCAGAGAAACACACGUUGUGGUAUAUUGCCUGGUA [A64G] | 0.544
22 | GUCCUCUUUCACGUGCGCGUGAAAGAGAGAAGUGAACCAGAGAAACACACGUUGUGGUAUAUUCCCUGGUA [A64C] | 0.174
23 | GUCCUCUUUCACGUGCGCGUGAAAGAGAGAAGUGAACCAGAGAAACACACGUUGUGGUAUAUUAACUGGUC [C65A A71C] | 1.07
24 | GUCCUCUUUCACGUGCGCGUGAAAGAGAGAAGUGAACCAGAGAAACACACGUUGUGGUAUAUUGCCUCGUA [A64G G68C] | 0.122
25 | GUCCUCUUUCACGUGCGCGUGAAAGAGAGAAGUGAACCAGAGAAACACACGUUGUGGUAUAUUGCCUUGUA [A64G G68U] | 0.19
26 | GUCCUCUUUCACGUGCGCGUGAAAGAGAGAAGUGAACCAGAGAAACACACGUUGUGGUAUAUUUGCUGGUA [A64U C65G] | 0.188
27 | GUCCUCUUUCACGUGCGCGUGAAAGAGAGAAGUGAACCAGAGAAACACACGUUGUGGUAUAUUACCAGUUA [U67A G69U] | 0.321
28 | GUCCUCUUUCACGUGCGCGUGAAAGAGAGAAGUGAACCAGAGAAACACACGUUGUGGUAUAUUACAUGUUA [C66A G69U] | 0.156
29 | GUCCUCUUUCACGUGCGCGUGAAAGAGAGAAGUGAACCAGAGAAACACACGUUGUGGUAUAUUACAUGCUA [C66A G69C] | 0.239
30 | GUCCUCUUUCACGUGCGCGUGAAAGAGAGAAGUGAACCAGAGAAACACACGUUGUGGUAUAUUACGUGGGA [C66G U70G] | 0.2
31 | GUCCUCUUUCACGUGCGCGUGAAAGAGAGAAGUGAACCAGAGAAACACACGUUGUGGUAUAUUACGUGGAA [C66G U70A] | 0.273
32 | GUCCUCUUUCACGUGCGCGUGAAAGAGAGAAGUGAACCAGAGAAACACACGUUGUGGUAUAUUACGUGGCA [C66G U70C] | 0.132
33 | GUCCUCUUUCACGUGCGCGUGAAAGAGAGAAGUGAACCAGAGAAACACACGUUGUGGUAUAUUAACUGGAA [C65A U70A] | 0.686
34 | GUCCUCUUUCACGUGCGCGUGAAAGAGAGAAGUGAACCAGAGAAACACACGUUGUGGUAUAUUGCGUGGUA [A64G C66G] | 0.226
35 | GUCCUCUUUCACGUGCGCGUGAAAGAGAGAAGUGAACCAGAGAAACACACGUUGUGGUAUAUUACUUGGAA [C66U U70A] | 0.356
36 | GUCCUCUUUCACGUGCGCGUGAAAGAGAGAAGUGAACCAGAGAAACACACGUUGUGGUAUAUUACUUGGCA [C66U U70C] | 0.506
37 | GUCCUCUUUCACGUGCGCGUGAAAGAGAGAAGUGAACCAGAGAAACACACGUUGUGGUAUAUUCCCGGGUA [A64C U67G] | 0.147
38 | GUCCUCUUUCACGUGCGCGUGAAAGAGAGAAGUGAACCAGAGAAACACACGUUGUGGUAUAUUUCCUGAUA [A64U G69A] | 0.115
